From patent publication US20150258192A1, “COMPOSITIONS AND METHODS FOR PREVENTING OR TREATING CHRONIC LUNG ALLOGRAFT DYSFUNCTION (CLAD) AND IDIOPATHIC PULMONARY FIBROSIS (IPF)” (priority 2014, published 2015)
No end group written: not given here.

Columns and labels:
Assay in all cases: Kinase Profiling Assay
Assay type in all cases: biochemical
Conditions in all cases: peptide 100 μM
[1] = molecular target: CSK(h) (Homo sapiens, UniProt P41240)
Summary of the method: (§1)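 Radiometric filter-binding format: cationic substrate takes up labeled phosphate from ATP unless the inhibitor peptide blocks the kinase. Substrate bound to an anionic filter, scintillation-counted, normalized to 100% activity control. Duplicates; part of a 266-kinase selectivity panel for MK2 peptides.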

[2] = molecular target: Ret(V804M)(h) (Homo sapiens, UniProt P07949, V804M)
Summary of the method: as §1

[3] = molecular target: T1, ZAP-70(h) (Homo sapiens, UniProt P43403)
T1 sequence (P43403 1-619): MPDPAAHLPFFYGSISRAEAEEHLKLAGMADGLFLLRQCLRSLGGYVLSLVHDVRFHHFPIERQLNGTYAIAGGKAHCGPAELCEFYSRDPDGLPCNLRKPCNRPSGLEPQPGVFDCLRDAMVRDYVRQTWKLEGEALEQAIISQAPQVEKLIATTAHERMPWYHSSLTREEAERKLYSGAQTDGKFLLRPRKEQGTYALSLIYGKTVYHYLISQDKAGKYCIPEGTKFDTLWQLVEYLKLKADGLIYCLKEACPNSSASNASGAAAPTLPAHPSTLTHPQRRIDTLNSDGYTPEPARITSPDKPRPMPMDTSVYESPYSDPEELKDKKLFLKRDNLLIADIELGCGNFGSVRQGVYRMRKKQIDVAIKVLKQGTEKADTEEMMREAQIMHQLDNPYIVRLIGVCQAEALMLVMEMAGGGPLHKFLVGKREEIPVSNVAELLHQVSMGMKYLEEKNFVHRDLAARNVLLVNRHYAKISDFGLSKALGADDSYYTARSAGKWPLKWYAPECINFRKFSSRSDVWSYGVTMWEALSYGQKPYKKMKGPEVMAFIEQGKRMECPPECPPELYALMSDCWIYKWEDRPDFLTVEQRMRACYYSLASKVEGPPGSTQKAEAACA
Summary of the method: as §1

[4] = molecular target: PRK2(h) (Homo sapiens, UniProt Q16513)
PRK2(h), sequence (Q16513 whole entry): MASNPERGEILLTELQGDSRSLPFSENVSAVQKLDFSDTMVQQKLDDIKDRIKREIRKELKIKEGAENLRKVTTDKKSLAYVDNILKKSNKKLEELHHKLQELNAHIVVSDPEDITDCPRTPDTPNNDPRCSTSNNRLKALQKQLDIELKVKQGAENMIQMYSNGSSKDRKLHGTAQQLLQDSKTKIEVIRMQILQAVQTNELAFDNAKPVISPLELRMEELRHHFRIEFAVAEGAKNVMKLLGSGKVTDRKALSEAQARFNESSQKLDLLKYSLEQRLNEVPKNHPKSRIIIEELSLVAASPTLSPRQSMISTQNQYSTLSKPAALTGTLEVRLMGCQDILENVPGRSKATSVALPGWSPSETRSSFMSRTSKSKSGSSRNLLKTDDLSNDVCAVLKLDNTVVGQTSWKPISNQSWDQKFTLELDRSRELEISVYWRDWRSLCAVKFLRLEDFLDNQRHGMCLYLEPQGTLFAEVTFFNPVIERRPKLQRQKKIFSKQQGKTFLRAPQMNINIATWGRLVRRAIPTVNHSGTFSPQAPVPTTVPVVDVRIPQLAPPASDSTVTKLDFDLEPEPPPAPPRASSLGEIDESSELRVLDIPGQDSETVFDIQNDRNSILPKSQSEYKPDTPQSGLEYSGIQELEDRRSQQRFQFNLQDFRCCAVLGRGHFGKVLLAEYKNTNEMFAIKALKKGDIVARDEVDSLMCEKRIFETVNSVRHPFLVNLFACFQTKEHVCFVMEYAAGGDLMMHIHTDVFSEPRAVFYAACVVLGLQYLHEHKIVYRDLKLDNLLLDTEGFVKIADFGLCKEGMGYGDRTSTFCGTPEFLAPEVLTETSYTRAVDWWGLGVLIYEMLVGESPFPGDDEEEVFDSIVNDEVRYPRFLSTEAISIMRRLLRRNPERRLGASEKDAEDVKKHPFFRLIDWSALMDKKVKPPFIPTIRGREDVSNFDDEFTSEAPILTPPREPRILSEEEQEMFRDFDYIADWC
Summary of the method: as §1

[5] = molecular target: PKCβI(h) (Homo sapiens, UniProt P05771)
Summary of the method: as §1

[6] = molecular target: T2, NEK7(h) (Homo sapiens, UniProt Q8TDX7)
T2 construct: purchased Millipore
T2 sequence (Q8TDX7 whole entry): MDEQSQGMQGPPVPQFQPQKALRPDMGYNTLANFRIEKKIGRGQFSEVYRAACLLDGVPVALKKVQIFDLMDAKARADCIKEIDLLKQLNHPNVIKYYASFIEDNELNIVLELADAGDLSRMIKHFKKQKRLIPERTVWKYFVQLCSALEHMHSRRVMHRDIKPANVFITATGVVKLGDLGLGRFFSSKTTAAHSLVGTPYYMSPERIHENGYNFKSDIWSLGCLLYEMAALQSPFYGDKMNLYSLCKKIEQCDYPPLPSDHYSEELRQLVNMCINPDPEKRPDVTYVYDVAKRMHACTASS
Summary of the method: as §1

[7] = molecular target: T3, IRAK1(h) (Homo sapiens, UniProt P51617)
T3 construct: purchased Millipore
Summary of the method: as §1

[8] = molecular target: CHK2(h) (Homo sapiens, UniProt O96017)
CHK2(h), sequence (O96017 whole entry): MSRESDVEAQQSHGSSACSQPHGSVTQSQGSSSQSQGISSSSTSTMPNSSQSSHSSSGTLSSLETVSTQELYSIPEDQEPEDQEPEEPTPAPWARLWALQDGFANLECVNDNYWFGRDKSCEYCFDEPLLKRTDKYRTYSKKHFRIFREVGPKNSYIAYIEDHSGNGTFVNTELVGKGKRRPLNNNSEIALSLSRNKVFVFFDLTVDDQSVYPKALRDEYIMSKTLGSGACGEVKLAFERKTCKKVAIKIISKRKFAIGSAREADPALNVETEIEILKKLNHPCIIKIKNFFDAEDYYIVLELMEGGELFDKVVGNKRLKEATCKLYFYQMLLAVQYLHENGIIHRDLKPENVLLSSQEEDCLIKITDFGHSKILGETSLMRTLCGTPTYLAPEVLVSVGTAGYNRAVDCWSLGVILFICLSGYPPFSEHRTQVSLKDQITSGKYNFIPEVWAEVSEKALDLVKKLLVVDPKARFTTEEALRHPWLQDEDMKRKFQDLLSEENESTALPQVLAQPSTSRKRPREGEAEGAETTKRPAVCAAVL
Summary of the method: as §1

[9] = molecular target: T4, Tie2(h) (Homo sapiens, UniProt Q02763)
T4 construct: purchased Millipore
T4 sequence (Q02763 23-1124): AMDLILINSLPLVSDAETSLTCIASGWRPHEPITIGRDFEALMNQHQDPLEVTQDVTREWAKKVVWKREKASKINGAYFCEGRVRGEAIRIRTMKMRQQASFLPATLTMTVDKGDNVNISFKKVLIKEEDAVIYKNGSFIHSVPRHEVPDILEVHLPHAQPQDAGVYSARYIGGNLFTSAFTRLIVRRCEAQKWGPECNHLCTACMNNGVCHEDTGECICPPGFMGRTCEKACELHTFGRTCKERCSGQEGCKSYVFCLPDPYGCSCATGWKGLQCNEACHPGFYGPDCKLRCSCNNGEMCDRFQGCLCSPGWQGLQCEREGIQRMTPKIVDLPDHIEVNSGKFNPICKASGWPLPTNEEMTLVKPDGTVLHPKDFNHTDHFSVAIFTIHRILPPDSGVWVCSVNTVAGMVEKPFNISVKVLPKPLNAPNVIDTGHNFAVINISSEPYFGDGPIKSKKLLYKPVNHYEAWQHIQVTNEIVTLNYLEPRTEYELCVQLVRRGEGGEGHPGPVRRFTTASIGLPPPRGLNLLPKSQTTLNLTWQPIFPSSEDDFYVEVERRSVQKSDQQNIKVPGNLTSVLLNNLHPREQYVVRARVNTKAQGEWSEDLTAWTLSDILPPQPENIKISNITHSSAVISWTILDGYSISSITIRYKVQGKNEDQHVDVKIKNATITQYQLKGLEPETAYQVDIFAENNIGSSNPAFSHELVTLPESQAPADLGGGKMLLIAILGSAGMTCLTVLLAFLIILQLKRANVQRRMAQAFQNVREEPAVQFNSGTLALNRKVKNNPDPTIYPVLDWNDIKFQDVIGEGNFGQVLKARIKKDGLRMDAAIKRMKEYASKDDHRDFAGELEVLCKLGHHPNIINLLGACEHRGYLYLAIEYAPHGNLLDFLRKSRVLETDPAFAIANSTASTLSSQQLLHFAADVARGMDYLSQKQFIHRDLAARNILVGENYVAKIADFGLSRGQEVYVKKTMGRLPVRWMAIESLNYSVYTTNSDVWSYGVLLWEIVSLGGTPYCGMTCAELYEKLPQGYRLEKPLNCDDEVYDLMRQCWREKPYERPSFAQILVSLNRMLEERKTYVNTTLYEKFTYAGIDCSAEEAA
Summary of the method: as §1

[10] = molecular target: T5, TBK1(h) (Homo sapiens, UniProt Q9UHD2)
T5 construct: purchased Millipore
T5 sequence (Q9UHD2 1-729): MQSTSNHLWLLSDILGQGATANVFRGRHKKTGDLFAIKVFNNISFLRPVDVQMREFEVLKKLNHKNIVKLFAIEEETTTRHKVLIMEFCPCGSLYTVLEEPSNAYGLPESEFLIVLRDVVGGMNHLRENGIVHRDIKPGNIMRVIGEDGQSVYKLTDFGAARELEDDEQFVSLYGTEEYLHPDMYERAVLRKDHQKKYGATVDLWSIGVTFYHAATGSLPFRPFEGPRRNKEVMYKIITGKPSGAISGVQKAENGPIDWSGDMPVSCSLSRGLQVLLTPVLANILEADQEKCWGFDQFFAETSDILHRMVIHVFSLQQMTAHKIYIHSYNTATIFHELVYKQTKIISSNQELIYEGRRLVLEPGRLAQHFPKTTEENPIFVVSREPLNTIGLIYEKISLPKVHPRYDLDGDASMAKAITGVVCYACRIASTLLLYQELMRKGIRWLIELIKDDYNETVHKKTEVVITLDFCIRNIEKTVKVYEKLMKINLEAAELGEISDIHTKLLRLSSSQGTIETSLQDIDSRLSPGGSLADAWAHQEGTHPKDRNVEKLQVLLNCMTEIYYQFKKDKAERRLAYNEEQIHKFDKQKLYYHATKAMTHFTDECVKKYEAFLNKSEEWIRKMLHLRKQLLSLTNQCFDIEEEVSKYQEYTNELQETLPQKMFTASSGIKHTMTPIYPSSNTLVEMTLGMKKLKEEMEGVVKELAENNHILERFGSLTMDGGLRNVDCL
Summary of the method: as §1

[11] = molecular target: DAPK1(h) (Homo sapiens, UniProt P53355)
Summary of the method: as §1

[12] = molecular target: CLK3(h) (Homo sapiens, UniProt P49761)
CLK3(h), sequence (P49761 whole entry): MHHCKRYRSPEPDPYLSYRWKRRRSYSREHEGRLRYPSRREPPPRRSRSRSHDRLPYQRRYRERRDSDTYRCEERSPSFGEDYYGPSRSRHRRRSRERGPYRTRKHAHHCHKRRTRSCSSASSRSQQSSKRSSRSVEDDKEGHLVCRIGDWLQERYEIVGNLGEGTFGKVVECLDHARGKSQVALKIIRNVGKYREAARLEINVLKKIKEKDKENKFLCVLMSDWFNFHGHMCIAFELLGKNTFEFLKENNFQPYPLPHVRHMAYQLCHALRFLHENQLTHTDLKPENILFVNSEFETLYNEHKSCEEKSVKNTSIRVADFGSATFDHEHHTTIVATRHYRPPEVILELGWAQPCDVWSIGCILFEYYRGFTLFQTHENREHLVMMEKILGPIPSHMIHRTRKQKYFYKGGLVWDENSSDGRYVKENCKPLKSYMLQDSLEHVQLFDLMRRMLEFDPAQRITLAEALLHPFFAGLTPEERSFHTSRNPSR
Summary of the method: as §1

[13] = molecular target: EGFR(L858R)(h) (Homo sapiens, UniProt P00533, L858R)
Summary of the method: as §1

[14] = molecular target: T6, SRPK2(h) (Homo sapiens, UniProt P78362)
T6 construct: purchased Millipore
T6 sequence (P78362 whole entry): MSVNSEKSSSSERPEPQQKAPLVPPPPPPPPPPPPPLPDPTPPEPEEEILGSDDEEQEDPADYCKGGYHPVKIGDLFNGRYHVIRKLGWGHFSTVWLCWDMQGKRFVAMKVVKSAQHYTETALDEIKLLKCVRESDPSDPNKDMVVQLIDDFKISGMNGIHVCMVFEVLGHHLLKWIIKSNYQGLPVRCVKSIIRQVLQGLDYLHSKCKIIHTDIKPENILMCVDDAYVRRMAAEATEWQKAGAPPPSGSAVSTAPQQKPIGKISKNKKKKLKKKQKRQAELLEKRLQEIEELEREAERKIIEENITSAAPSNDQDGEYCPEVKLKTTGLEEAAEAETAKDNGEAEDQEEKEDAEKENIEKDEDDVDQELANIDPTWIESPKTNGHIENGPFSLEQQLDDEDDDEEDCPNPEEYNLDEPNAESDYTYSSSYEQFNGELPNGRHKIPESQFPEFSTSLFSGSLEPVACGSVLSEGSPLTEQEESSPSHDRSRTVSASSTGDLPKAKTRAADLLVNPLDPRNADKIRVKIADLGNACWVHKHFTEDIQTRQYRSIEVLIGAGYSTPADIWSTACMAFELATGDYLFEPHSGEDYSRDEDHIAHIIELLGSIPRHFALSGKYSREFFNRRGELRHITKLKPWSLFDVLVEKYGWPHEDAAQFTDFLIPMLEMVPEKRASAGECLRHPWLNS
Summary of the method: as §1

CSK(h), sequence (P41240 whole entry): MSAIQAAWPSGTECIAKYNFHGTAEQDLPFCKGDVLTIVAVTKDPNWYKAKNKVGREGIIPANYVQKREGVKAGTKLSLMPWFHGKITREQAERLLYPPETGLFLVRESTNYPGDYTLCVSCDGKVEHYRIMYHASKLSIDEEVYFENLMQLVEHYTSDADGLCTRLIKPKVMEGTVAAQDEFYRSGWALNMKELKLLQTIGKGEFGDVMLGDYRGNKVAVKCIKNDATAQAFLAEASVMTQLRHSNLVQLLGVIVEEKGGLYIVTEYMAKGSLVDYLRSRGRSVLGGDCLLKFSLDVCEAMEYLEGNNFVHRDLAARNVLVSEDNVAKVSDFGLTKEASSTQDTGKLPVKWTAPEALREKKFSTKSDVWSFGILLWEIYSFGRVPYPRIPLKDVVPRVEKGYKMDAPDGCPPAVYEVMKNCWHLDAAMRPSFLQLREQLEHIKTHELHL

Sequence | % activity [1] [%] | % activity [2] [%] | % activity [3] [%] | % activity [4] [%] | % activity [5] [%] | % activity [6] [%] | % activity [7] [%] | % activity [8] [%] | % activity [9] [%] | % activity [10] [%] | % activity [11] [%] | % activity [12] [%] | % activity [13] [%] | % activity [14] [%]
FAKLAARLYRKALARQLGVAA [MMI-0300] | 49 | 95 | 75 | 33 | 78 | 84 | 95 | 66 | 26 | 37 | 46 | 61 |  | 
HRRIKAWLKKIKALARQLGVAA (Mammal) [MMI-0500] | 2 | 36 | 1 | 7 | 1 | 89 | 5 | 13 | 22 | 16 | 0 | 76 | 26 | 80
KAFAKLAARLYRKALARQLGVAA [MMI-0400] | 16 | 87 | 33 | 27 | 78 | 87 | 93 | 54 | 21 | 39 | 36 | 84 | 52 | 97
YARAAARQARAKALARQLGVAA [MMI-0100] |  | 92 | 79 | 72 |  |  |  |  | 28 |  | 97 | 108 | 76 | 92
YARAAARQARAKALNRQLGVA (Mammal) [MMI-0200] | 33 |  | 58 | 74 | 98 | 96 | 101 |  | 53 | 98 |  | 76 | 120 | 100
